This is an account of results in patent CN116199778A (SHANGHAI JUNSHI BIOSCIENCES CO LTD; JUNMENG BIOSCIENCES CO …, dated 2023).

Assay [1] deals with 4-1BB on the surface of Jurkat NFKB 4-1BB cells (UniProt Q07011 24-255, limits assumed). Briefly: cell-based or functional assay.
Assay [2] deals with T1, 含有His标签的鼠4-1BB (mouse 4-1BB with His tag, Sino Biological 50811-M08H) (mouse, UniProt P20334 24-187).
T1 construct: Bought protein; Coated on the ELISA plate at 1.0 ug/mL; not shown: His tag
T1 sequence (looked up): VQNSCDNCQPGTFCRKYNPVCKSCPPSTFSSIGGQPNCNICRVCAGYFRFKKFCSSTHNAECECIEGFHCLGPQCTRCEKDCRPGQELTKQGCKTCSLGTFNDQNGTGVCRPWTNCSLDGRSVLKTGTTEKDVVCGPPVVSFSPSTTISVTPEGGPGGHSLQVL
Briefly: ELISA, His-tagged mouse 4-1BB coated at 1.0 ug/mL, antibody titrated, anti-human IgG4 Fc HRP detection. (ELISA stands for enzyme-linked immunosorbent assay.)

Sequence of 4-1BB on the surface of Jurkat NFKB 4-1BB cells (Q07011 24-255 limits assumed): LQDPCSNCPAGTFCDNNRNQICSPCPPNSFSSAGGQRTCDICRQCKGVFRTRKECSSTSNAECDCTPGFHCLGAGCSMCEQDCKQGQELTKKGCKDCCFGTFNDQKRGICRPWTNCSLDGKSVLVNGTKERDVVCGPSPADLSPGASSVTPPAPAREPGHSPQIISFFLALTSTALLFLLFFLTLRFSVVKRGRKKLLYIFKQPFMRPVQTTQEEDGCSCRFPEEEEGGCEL

B1: JS011-phage3 (antibody, V domains shown)
VH: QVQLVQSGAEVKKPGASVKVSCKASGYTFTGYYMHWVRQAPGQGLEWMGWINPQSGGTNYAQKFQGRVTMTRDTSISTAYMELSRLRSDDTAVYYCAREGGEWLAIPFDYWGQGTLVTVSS
VL: ELELTQPPSVSVSPGQTASITCSADKLGDKYASWYQQKPGQSPVLVLYEDSKRPSGIPERISGSNSGNTATLTIRGTQPMDEADYYCQTWDTNTVLFGGGTRLTVL
Regarding B1, in assay [1], the “EC50, luciferase reporter (RLU), Raji / Jurkat NFKB 4-1BB two-cell system” value (from here on “EC50 … Raji / Jurkat NFKB 4-1BB two-cell system”) was determined as 9.45 µg/mL; the “EC50, luciferase reporter (RLU), Raji / Jurkat NFKB (4-1BB low expression) two-cell system” value turned out to be 9.45 µg/mL; the “EC50, luciferase reporter (RLU), THP-1 / Jurkat NFKB 4-1BB two-cell system” value (“EC50 … THP-1 / Jurkat NFKB 4-1BB two-cell system” below) amounted to 0.00664 µg/mL.

B2: Urelumab (antibody, V domains shown)
VH: QVQLQQWGAGLLKPSETLSLTCAVYGGSFSGYYWSWIRQSPEKGLEWIGEINHGGYVTYNPSLESRVTISVDTSKNQFSLKLSSVTAADTAVYYCARDYGPGNYDWYFDLWGRGTLVTVSS
VL: EIVLTQSPATLSLSPGERATLSCRASQSVSSYLAWYQQKPGQAPRLLIYDASNRATGIPARFSGSGSGTDFTLTISSLEPEDFAVYYCQQRSNWPPALTFGGGTKVEIK
With B2, in assay [1], the “EC50 … Raji / Jurkat NFKB 4-1BB two-cell system” value was found to be 7.24 µg/mL; the “EC50, luciferase reporter (RLU), Raji / Jurkat NFKB (4-1BB low expression) two-cell system” value turned out to be 86 µg/mL; the “EC50 … THP-1 / Jurkat NFKB 4-1BB two-cell system” value came out at 219 µg/mL.

B3: JS011-phage6 (antibody, V domains shown)
VH: QVQLVQSGAEVKKPGASVKVSCKASGYTFTGQYIHWARQAPGQGLEWMGWINPNSGGTNYAQKFQGRVTMTRDTSISTAYMELSRLRSDDTAVYYCARDKAGADYWGQGTLVTVSS
VL: ELALTQPPSVSGSPGQSITISCTGTSSDIGGYDYVSWYQQYPGKAPKLMISGVSNRPSGVSNRFSGSKSGNTASLIISGLQAEDEGDYYCSSYTSRSTRWVFGGGTKLTVL
Regarding B3, the binding result in assay [2] is given as “no binding (tested: 1μg/ml起始)”. For the same molecule, in assay [1], the “EC50 … Raji / Jurkat NFKB 4-1BB two-cell system” value was found to be 2.71 µg/mL and the “EC50 … THP-1 / Jurkat NFKB 4-1BB two-cell system” value was 0.283 µg/mL.
